Target: T1, MBP-HS1BP3 full length (UniProt Q53T59 1-392)
T1 sequence (looked up): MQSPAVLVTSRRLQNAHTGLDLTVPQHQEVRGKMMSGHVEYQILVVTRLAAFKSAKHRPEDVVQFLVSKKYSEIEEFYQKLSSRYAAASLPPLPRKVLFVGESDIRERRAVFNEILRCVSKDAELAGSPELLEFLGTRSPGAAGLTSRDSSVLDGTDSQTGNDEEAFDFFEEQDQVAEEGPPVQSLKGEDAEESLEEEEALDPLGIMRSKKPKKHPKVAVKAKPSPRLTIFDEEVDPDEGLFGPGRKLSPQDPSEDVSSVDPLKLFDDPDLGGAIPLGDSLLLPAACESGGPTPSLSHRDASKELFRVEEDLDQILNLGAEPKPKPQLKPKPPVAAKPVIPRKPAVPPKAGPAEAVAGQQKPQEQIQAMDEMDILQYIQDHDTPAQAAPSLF
Assay: pull-down

B1: GST-SH3 (SH3 domain of cortactin fused to GST) (domain or fragment)
chain: not shown
  binding result: binds

— paper doi:10.1101/2025.07.14.664640 (bioRxiv, 2025)
